Measured values taken from US20250339569A1 (3B PHARMACEUTICALS, published 2025).
Each block holds one binder with its values, some of them ahead of it. Starred links: 1 amine or outer side, 2 acyl side, 3 side chain; linkers in the order of their positions; H or OH if unused. Positions of bridges follow the written chain, without caps; N, C: chain ends. Non-standard residues stand in square brackets, D forms with d. Groups on a side chain read outwards from the residue. Primed or numbered codes have the meaning given here. No end group written: not given here. *: point of attachment. APAc″ = 2-(4-(amino)piperidin-1-yl)acetic acid, NC1CCN(CC(=O)*)CC1; DOTA = O=C(O)CN1CCN(CC(=O)O)CCN(CC(=O)*)CCN(CC(=O)O)CC1; mXylylene = c1cc(C[*:1])cc(C[*:2])c1; 3Amb = NCc1cccc(C(=O)O)c1; dNMeA = CN[C@H](C)C(=O)O; 4Amc = not defined here; Apr = not defined here; AEEA = NCCOCCOCC(=O)O; Sar = CNCC(=O)O

Molecular target: human carbonic anhydrase 9 (CAIX) (human, UniProt Q16790 38-459)
Experiment: FACS competition on HT-29 cells against tracer 3BP-2776; pIC50 category A = pIC50 >8.0
Method: CAIX-expressing human HT-29 colorectal cancer cells (DSMZ, RRID: CVCL_0320) were cultured in McCoys's 5A modified medium (Biochrom, #F1015) including 10% fetal calf serum (FCS), 2 mM L-glutamine, 100 U/ml penicillin and 100 μg/mL streptomycin. Cells were detached with Accutase (Biolegend, #423201) and washed in FACS buffer (PBS including 1% FCS). Cells were diluted in FACS buffer to a final concentration of 500.000 cells per ml. 200 μL of the cell suspension were transferred to a u-shaped non-binding 96-well plate (Greiner) and cells were washed in ice-cold FACS buffer.
When biotinylated compounds were used an additional incubation step with 1 μg/mL APC-Streptavidin (Miltenyi; #130-106-791) in 50 μL FACS buffer for 30 minutes on ice was performed.
Cells were washed twice with ice-cold FACS buffer and analyzed in an Attune NxT flow cytometer (Thermo Fisher). Median fluorescence intensities (MFI) of the APC/Cy5-channel were calculated by Attune NxT software.

B2: 3BP-3566 (peptide)
peptide: Ac-SYCE[dP]DWLTWSC-NH2
modifications: linker 3-12 via mXylylene
SMILES: CC(=O)N[C@@H](CO)C(=O)N[C@@H](Cc1ccc(O)cc1)C(=O)N[C@H]1CSCc2cccc(c2)CSC[C@@H](C(N)=O)NC(=O)[C@H](CO)NC(=O)[C@H](Cc2c[nH]c3ccccc23)NC(=O)[C@H]([C@@H](C)O)NC(=O)[C@H](CC(C)C)NC(=O)[C@H](Cc2c[nH]c3ccccc23)NC(=O)[C@H](CC(=O)O)NC(=O)[C@H]2CCCN2C(=O)[C@H](CCC(=O)O)NC1=O
notes: also called Ac-Ser-Tyr-[Cys(3MeBn)-Glu-pro-Asp-Trp-Leu-Thr-Trp-Ser-Cys]-NH2
pIC50: > 8 pic50

B4: 3BP-3313 (peptide)
peptide: Ac-VYCE[Sar]DWLTWAC-NH2
modifications: linker 3-12 via mXylylene
SMILES: CC(=O)N[C@H](C(=O)N[C@@H](Cc1ccc(O)cc1)C(=O)N[C@H]1CSCc2cccc(c2)CSC[C@@H](C(N)=O)NC(=O)[C@H](C)NC(=O)[C@H](Cc2c[nH]c3ccccc23)NC(=O)[C@H]([C@@H](C)O)NC(=O)[C@H](CC(C)C)NC(=O)[C@H](Cc2c[nH]c3ccccc23)NC(=O)[C@H](CC(=O)O)NC(=O)CN(C)C(=O)[C@H](CCC(=O)O)NC1=O)C(C)C
notes: also called Ac-Val-Tyr-[Cys(3MeBn)-Glu-Nmg-Asp-Trp-Leu-Thr-Trp-Ala-Cys]-NH2
pIC50: > 8 pic50

B7: 3BP-3307 (peptide)
peptide: Ac-VYCE[Sar]DWLGWQC-NH2
modifications: linker 3-12 via mXylylene
SMILES: CC(=O)N[C@H](C(=O)N[C@@H](Cc1ccc(O)cc1)C(=O)N[C@H]1CSCc2cccc(c2)CSC[C@@H](C(N)=O)NC(=O)[C@H](CCC(N)=O)NC(=O)[C@H](Cc2c[nH]c3ccccc23)NC(=O)CNC(=O)[C@H](CC(C)C)NC(=O)[C@H](Cc2c[nH]c3ccccc23)NC(=O)[C@H](CC(=O)O)NC(=O)CN(C)C(=O)[C@H](CCC(=O)O)NC1=O)C(C)C
notes: also called Ac-Val-Tyr-[Cys(3MeBn)-Glu-Nmg-Asp-Trp-Leu-Gly-Trp-Gln-Cys]-NH2
pIC50: > 8 pic50

B8: 3BP-3281 (peptide)
peptide: Ac-VYCE[dNMeA]DWLTWAC-NH2
modifications: linker 3-12 via mXylylene
SMILES: CC(=O)N[C@H](C(=O)N[C@@H](Cc1ccc(O)cc1)C(=O)N[C@H]1CSCc2cccc(c2)CSC[C@@H](C(N)=O)NC(=O)[C@H](C)NC(=O)[C@H](Cc2c[nH]c3ccccc23)NC(=O)[C@H]([C@@H](C)O)NC(=O)[C@H](CC(C)C)NC(=O)[C@H](Cc2c[nH]c3ccccc23)NC(=O)[C@H](CC(=O)O)NC(=O)[C@@H](C)N(C)C(=O)[C@H](CCC(=O)O)NC1=O)C(C)C
notes: also called Ac-Val-Tyr-[Cys(3MeBn)-Glu-nma-Asp-Trp-Leu-Thr-Trp-Ala-Cys]-NH2
pIC50: > 8 pic50

B9: 3BP-3429 (peptide)
peptide: {DOTA-3Amb}-VYCE[dP]DWLTWAC-NH2
modifications: linker 3-12 via mXylylene
SMILES: CC(C)C[C@@H]1NC(=O)[C@H](Cc2c[nH]c3ccccc23)NC(=O)[C@H](CC(=O)O)NC(=O)[C@H]2CCCN2C(=O)[C@H](CCC(=O)O)NC(=O)[C@@H](NC(=O)[C@H](Cc2ccc(O)cc2)NC(=O)[C@@H](NC(=O)c2cccc(CNC(=O)CN3CCN(CC(=O)O)CCN(CC(=O)O)CCN(CC(=O)O)CC3)c2)C(C)C)CSCc2cccc(c2)CSC[C@@H](C(N)=O)NC(=O)[C@H](C)NC(=O)[C@H](Cc2c[nH]c3ccccc23)NC(=O)[C@H]([C@@H](C)O)NC1=O
notes: also called DOTA-Mamb-Val-Tyr-[Cys(3MeBn)-Glu-pro-Asp-Trp-Leu-Thr-Trp-Ala-Cys]-NH2
pIC50: > 8 pic50

B10: 3BP-3567 (peptide)
peptide: Ac-TYCE[dP]DWLTWSC-NH2
modifications: linker 3-12 via mXylylene
SMILES: CC(=O)N[C@H](C(=O)N[C@@H](Cc1ccc(O)cc1)C(=O)N[C@H]1CSCc2cccc(c2)CSC[C@@H](C(N)=O)NC(=O)[C@H](CO)NC(=O)[C@H](Cc2c[nH]c3ccccc23)NC(=O)[C@H]([C@@H](C)O)NC(=O)[C@H](CC(C)C)NC(=O)[C@H](Cc2c[nH]c3ccccc23)NC(=O)[C@H](CC(=O)O)NC(=O)[C@H]2CCCN2C(=O)[C@H](CCC(=O)O)NC1=O)[C@@H](C)O
notes: also called Ac-Thr-Tyr-[Cys(3MeBn)-Glu-pro-Asp-Trp-Leu-Thr-Trp-Ser-Cys]-NH2
pIC50: > 8 pic50

B11: 3BP-3434 (peptide)
peptide: Ac-VYCE[dP]DWLTWAC
modifications: linker 3-12 via mXylylene; not fully specified (C-terminus)
notes: also called Ac-Val-Tyr-[Cys(3MeBn)-Glu-pro-Asp-Trp-Leu-Thr-Trp-Ala-Cys]-Ape-NH-DOTA′
pIC50: > 8 pic50

B13: 3BP-3430 (peptide)
peptide: {DOTA-4Amc}-VYCE[dP]DWLTWAC-NH2
modifications: linker 3-12 via mXylylene; reading uncertain
notes: also called DOTA-4Amc-Val-Tyr-[Cys(3MeBn)-Glu-pro-Asp-Trp-Leu-Thr-Trp-Ala-Cys]-NH2
pIC50: > 8 pic50

B14: 3BP-3282 (peptide)
peptide: Ac-VYCE[dP]DWLTWAC-NH2
modifications: linker 3-12 via mXylylene
SMILES: CC(=O)N[C@H](C(=O)N[C@@H](Cc1ccc(O)cc1)C(=O)N[C@H]1CSCc2cccc(c2)CSC[C@@H](C(N)=O)NC(=O)[C@H](C)NC(=O)[C@H](Cc2c[nH]c3ccccc23)NC(=O)[C@H]([C@@H](C)O)NC(=O)[C@H](CC(C)C)NC(=O)[C@H](Cc2c[nH]c3ccccc23)NC(=O)[C@H](CC(=O)O)NC(=O)[C@H]2CCCN2C(=O)[C@H](CCC(=O)O)NC1=O)C(C)C
notes: also called Ac-Val-Tyr-[Cys(3MeBn)-Glu-pro-Asp-Trp-Leu-Thr-Trp-Ala-Cys]-NH2
pIC50: > 8 pic50

B15: 3BP-3568 (peptide)
peptide: Ac-IYCE[dP]DWLTWSC-NH2
modifications: linker 3-12 via mXylylene
SMILES: CC[C@H](C)[C@H](NC(C)=O)C(=O)N[C@@H](Cc1ccc(O)cc1)C(=O)N[C@H]1CSCc2cccc(c2)CSC[C@@H](C(N)=O)NC(=O)[C@H](CO)NC(=O)[C@H](Cc2c[nH]c3ccccc23)NC(=O)[C@H]([C@@H](C)O)NC(=O)[C@H](CC(C)C)NC(=O)[C@H](Cc2c[nH]c3ccccc23)NC(=O)[C@H](CC(=O)O)NC(=O)[C@H]2CCCN2C(=O)[C@H](CCC(=O)O)NC1=O
notes: also called Ac-Ile-Tyr-[Cys(3MeBn)-Glu-pro-Asp-Trp-Leu-Thr-Trp-Ser-Cys]-NH2
pIC50: > 8 pic50

B17: 3BP-3432 (peptide)
peptide: {DOTA-APAc″}-VYCE[dP]DWLTWAC-NH2
modifications: linker 3-12 via mXylylene
notes: also called DOTA-APAc-Val-Tyr-[Cys(3MeBn)-Glu-pro-Asp-Trp-Leu-Thr-Trp-Ala-Cys]-NH2
pIC50: > 8 pic50

B18: 3BP-3570 (peptide)
peptide: Ac-VFCE[dP]DWLTWSC-NH2
modifications: linker 3-12 via mXylylene
SMILES: CC(=O)N[C@H](C(=O)N[C@@H](Cc1ccccc1)C(=O)N[C@H]1CSCc2cccc(c2)CSC[C@@H](C(N)=O)NC(=O)[C@H](CO)NC(=O)[C@H](Cc2c[nH]c3ccccc23)NC(=O)[C@H]([C@@H](C)O)NC(=O)[C@H](CC(C)C)NC(=O)[C@H](Cc2c[nH]c3ccccc23)NC(=O)[C@H](CC(=O)O)NC(=O)[C@H]2CCCN2C(=O)[C@H](CCC(=O)O)NC1=O)C(C)C
notes: also called Ac-Val-Phe-[Cys(3MeBn)-Glu-pro-Asp-Trp-Leu-Thr-Trp-Ser-Cys]-NH2
pIC50: > 8 pic50

Next, values leading:

pIC50: > 8 pic50
B1: 3BP-3280 (peptide)
peptide: Ac-VYCE[dA]DWLTWAC-NH2
modifications: linker 3-12 via mXylylene
SMILES: CC(=O)N[C@H](C(=O)N[C@@H](Cc1ccc(O)cc1)C(=O)N[C@H]1CSCc2cccc(c2)CSC[C@@H](C(N)=O)NC(=O)[C@H](C)NC(=O)[C@H](Cc2c[nH]c3ccccc23)NC(=O)[C@H]([C@@H](C)O)NC(=O)[C@H](CC(C)C)NC(=O)[C@H](Cc2c[nH]c3ccccc23)NC(=O)[C@H](CC(=O)O)NC(=O)[C@@H](C)NC(=O)[C@H](CCC(=O)O)NC1=O)C(C)C
notes: also called Ac-Val-Tyr-[Cys(3MeBn)-Glu-ala-Asp-Trp-Leu-Thr-Trp-Ala-Cys]-NH2

pIC50: > 8 pic50
B3: 3BP-3478 (peptide)
peptide: Ac-VYCE[dP]DWLTWE([Apr-DOTA])C-NH2
modifications: linker 3-12 via mXylylene; reading uncertain
notes: also called Ac-Val-Tyr-[Cys(3MeBn)-Glu-pro-Asp-Trp-Leu-Thr-Trp-Glu(NH-Apr-DOTA′)-Cys]-NH2

pIC50: > 8 pic50
B5: 3BP-3565 (peptide)
peptide: Ac-VYCE[dP]DWLTWSC-NH2
modifications: linker 3-12 via mXylylene
SMILES: CC(=O)N[C@H](C(=O)N[C@@H](Cc1ccc(O)cc1)C(=O)N[C@H]1CSCc2cccc(c2)CSC[C@@H](C(N)=O)NC(=O)[C@H](CO)NC(=O)[C@H](Cc2c[nH]c3ccccc23)NC(=O)[C@H]([C@@H](C)O)NC(=O)[C@H](CC(C)C)NC(=O)[C@H](Cc2c[nH]c3ccccc23)NC(=O)[C@H](CC(=O)O)NC(=O)[C@H]2CCCN2C(=O)[C@H](CCC(=O)O)NC1=O)C(C)C
notes: also called Ac-Val-Tyr-[Cys(3MeBn)-Glu-pro-Asp-Trp-Leu-Thr-Trp-Ser-Cys]-NH2

pIC50: > 8 pic50
B6: 3BP-3304 (peptide)
peptide: Ac-VYCE[Sar]DWLTWGC-NH2
modifications: linker 3-12 via mXylylene
SMILES: CC(=O)N[C@H](C(=O)N[C@@H](Cc1ccc(O)cc1)C(=O)N[C@H]1CSCc2cccc(c2)CSC[C@@H](C(N)=O)NC(=O)CNC(=O)[C@H](Cc2c[nH]c3ccccc23)NC(=O)[C@H]([C@@H](C)O)NC(=O)[C@H](CC(C)C)NC(=O)[C@H](Cc2c[nH]c3ccccc23)NC(=O)[C@H](CC(=O)O)NC(=O)CN(C)C(=O)[C@H](CCC(=O)O)NC1=O)C(C)C
notes: also called Ac-Val-Tyr-[Cys(3MeBn)-Glu-Nmg-Asp-Trp-Leu-Thr-Trp-Gly-Cys]-NH2

pIC50: > 8 pic50
B12: 3BP-3284 (peptide)
peptide: Ac-VYCE[dA]DWLTWGC-NH2
modifications: linker 3-12 via mXylylene
SMILES: CC(=O)N[C@H](C(=O)N[C@@H](Cc1ccc(O)cc1)C(=O)N[C@H]1CSCc2cccc(c2)CSC[C@@H](C(N)=O)NC(=O)CNC(=O)[C@H](Cc2c[nH]c3ccccc23)NC(=O)[C@H]([C@@H](C)O)NC(=O)[C@H](CC(C)C)NC(=O)[C@H](Cc2c[nH]c3ccccc23)NC(=O)[C@H](CC(=O)O)NC(=O)[C@@H](C)NC(=O)[C@H](CCC(=O)O)NC1=O)C(C)C
notes: also called Ac-Val-Tyr-[Cys(3MeBn)-Glu-ala-Asp-Trp-Leu-Thr-Trp-Gly-Cys]-NH2

pIC50: > 8 pic50
B16: 3BP-3479 (peptide)
peptide: Ac-VYCE[dP]DWLTWE([Apr-AEEA-DOTA])C-NH2
modifications: linker 3-12 via mXylylene; reading uncertain
notes: also called Ac-Val-Tyr-[Cys(3MeBn)-Glu-pro-Asp-Trp-Leu-Thr-Trp-Glu(NH-Apr-O2Oc-DOTA′)-Cys]-NH2

pIC50: > 8 pic50
B19: 3BP-3433 (peptide)
peptide: Ac-VYCE[dP]DWLTWAC
modifications: linker 3-12 via mXylylene; not fully specified (C-terminus)
notes: The printed formula ends at '-Ape-NH'; also called Ac-Val-Tyr-[Cys(3MeBn)-Glu-pro-Asp-Trp-Leu-Thr-Trp-Ala-Cys]-Mamb-Ape-NH
